From patent US20240252670A1 (TSINGHUA UNIVERSITY, published 2024)

B1: anti-PD-L1 THIOMAB (avelumab with light chain V205C) (antibody, human IgG1, lambda)
heavy: not shown
light: QSALTQPASVSGSPGQSITISCTGTSSDVGGYNYVSWYQQHPGKAPKLMIYDVSNRPSGVSNRFSGSKSGNTASLTISGLQAEDEADYYCSSYTSSSTRVFGTGTKVTVLGQPKANPTVTLFPPSSEELQANKATLVCLISDFYPGAVTVAWKADGSPVKAGVETTKPSKQSNNKYAASSYLSLTPEQWKSHRSYSCQVTHEGSTCEKTVAPTECS
modifications: engineered cysteine (V205C; Cys 226 of SEQ ID NO: 9) generally capped with a free cysteine in the intact THIOMAB as expressed
notes: also called αPD-L1 THIOMAB LC-V205C
B2: anti-PD-L1 antibody avelumab (antibody, human IgG1, lambda)
heavy: not shown
light: QSALTQPASVSGSPGQSITISCTGTSSDVGGYNYVSWYQQHPGKAPKLMIYDVSNRPSGVSNRFSGSKSGNTASLTISGLQAEDEADYYCSSYTSSSTRVFGTGTKVTVLGQPKANPTVTLFPPSSEELQANKATLVCLISDFYPGAVTVAWKADGSPVKAGVETTKPSKQSNNKYAASSYLSLTPEQWKSHRSYSCQVTHEGSTVEKTVAPTECS
notes: also called MSB0010718C; Bavencio

Molecular target: T1, PD-L1 on the surface of murine cells (MC38, B16, wild-type DC 2.4) (murine, UniProt Q9EP73 19-290)
T1 construct: whole, on cells; also called PD-L1 antigen; Cd274 gene product
T1 sequence (Q9EP73 19-290): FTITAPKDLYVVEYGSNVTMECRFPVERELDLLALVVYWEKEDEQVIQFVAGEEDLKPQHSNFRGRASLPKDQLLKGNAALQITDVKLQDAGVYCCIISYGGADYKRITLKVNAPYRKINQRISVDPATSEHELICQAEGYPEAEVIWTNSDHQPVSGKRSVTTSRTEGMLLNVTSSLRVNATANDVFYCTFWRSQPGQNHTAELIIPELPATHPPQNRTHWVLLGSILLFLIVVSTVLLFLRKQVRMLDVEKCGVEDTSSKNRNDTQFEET
Assay: FACS on MC38 cells, FITC-labeled goat anti-human secondary antibody
From the text: A. The histograms of different colors represent, from top to bottom, the fluorescence signals measured for the negative control (NC) group, the secondary antibody group, the anti-PD-L1 antibody group, the anti-PD-L1 THIOMAB group, and the ADC HE-S2 group, respectively. B. Mean fluorescence intensity (MFI) measured after treatment with different antibody-based drugs on MC38. NC group: the negative control only added with the isotype antibody, with no secondary antibody added for staining; secondary antibody group: the control group added with the isotype antibody and stained with fluorescent secondary antibody. Student's t test was used to compare significant differences between the groups, and p<0.0001 is represented by ****.
With PD-L1 positive MC38 as a platform, the inventors verified whether ADC HE-S2 and the gene-modified anti-PD-L1 THIOMAB retained the original antibody-antigen binding capacity by using a fluorescence activated cell sorting (FACS) technique. In the experiment, ADC HE-S2, anti-PD-L1 antibody (i.e., avelumab as described in Example 2) and anti-PD-L1 THIOMAB (i.e., mutant antibody prepared in Example 2) serving as primary antibodies were incubated with MC38 cells, such that the antibodies could be sufficiently contacted and bind to PD-L1 on the cell surfaces. After washing with PBS, the cells were treated with an FITC-labeled goat anti-human secondary antibody, and incubated in the dark for 30 min to allow the secondary antibody to bind fully to the primary antibodies. Simultaneously, two groups of negative controls were set, wherein one group was marked as a negative control (NC), only isotype control IgG was added to treat the cells, no staining was carried out, and the fluorescent background of the cells was represented; the other group was marked as a secondary antibody, and after addition of isotype control IgG, the secondary antibody was stained with FITC-labeled secondary antibody along with other experimental groups to characterize false positive fluorescence signals generated by non-specific binding of secondary antibodies to the cells. The stained MC38 cells were analyzed on a BD FACSAria™ III flow cytometer, and the strength of FITC fluorescence signals on MC38 cells treated with different antibody-based drugs was detected and compared, so as to characterize the affinity of ADC, THIOMAB and antibodies to PD-L1.

Row | Binder | MFI | shift rate of the FITC positive signal relative to the NC group [%]
1 | B1 | 449 | 36.6
2 | B2 | 445 | 35.7
